Reference: patent publication US20210017275A1 (Alector, published 2021)
Changes are numbered by the printed parent chain.

T1: Histidine-tagged human Siglec-5 (NovoProtein) (human, UniProt O15389 17-434, limits assumed)
T1 construct: Bought protein; also called Siglec-5-his tagged protein; not shown: histidine tag
T1 sequence: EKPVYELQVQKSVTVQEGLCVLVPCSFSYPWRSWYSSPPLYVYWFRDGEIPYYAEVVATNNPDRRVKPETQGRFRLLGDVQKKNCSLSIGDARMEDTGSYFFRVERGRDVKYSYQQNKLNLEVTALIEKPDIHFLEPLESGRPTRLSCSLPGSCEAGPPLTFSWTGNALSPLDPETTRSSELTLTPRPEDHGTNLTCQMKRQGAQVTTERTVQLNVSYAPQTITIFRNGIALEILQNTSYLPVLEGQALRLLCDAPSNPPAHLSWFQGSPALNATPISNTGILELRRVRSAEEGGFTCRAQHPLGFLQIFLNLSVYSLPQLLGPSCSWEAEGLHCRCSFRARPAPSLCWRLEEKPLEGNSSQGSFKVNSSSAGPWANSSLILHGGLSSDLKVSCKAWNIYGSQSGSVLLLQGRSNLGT

T2: human Siglec-5 expressed on human primary cells (human, UniProt O15389 17-551)
T2 construct: Endogenous receptor on human primary monocytes, dendritic cells, macrophages and neutrophils; also called CD170
T2 sequence: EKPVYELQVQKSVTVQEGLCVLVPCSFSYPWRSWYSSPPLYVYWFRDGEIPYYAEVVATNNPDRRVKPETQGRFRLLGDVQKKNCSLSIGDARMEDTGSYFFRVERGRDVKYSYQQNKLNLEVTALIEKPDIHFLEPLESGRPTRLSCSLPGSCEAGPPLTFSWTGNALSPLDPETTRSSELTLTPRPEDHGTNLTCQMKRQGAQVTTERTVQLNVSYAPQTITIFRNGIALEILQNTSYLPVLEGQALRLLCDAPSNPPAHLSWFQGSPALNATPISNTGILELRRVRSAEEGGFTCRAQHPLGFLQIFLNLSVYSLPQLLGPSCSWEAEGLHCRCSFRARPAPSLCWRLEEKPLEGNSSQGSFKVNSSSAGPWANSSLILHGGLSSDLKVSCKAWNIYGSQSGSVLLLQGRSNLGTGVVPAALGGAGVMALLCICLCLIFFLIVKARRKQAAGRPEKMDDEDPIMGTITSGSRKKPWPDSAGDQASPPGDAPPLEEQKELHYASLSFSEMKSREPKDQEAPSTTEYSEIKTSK

T3: Human Siglec 5, Fc chimera (R&D Systems) (human, UniProt O15389 17-434, limits assumed)
T3 construct: Bought or recombinant Fc fusion; also called recombinant Siglec-5-Fc; not shown: Fc part
T3 sequence: T1 sequence

B1: anti-Siglec-5 monoclonal antibody 7A5 (antibody, IgG1, V domains shown)
VH: EIQLQQSGPELVKPGASVKVSCKASGYSFTDYNMYWVKQSHGKSLEWIGYIDPYNGGTTYNQKFKGKATLTVDKSSSTAFMHLNSLTSEDSAVFYCAFYYGYYGVPYWGQGTLVTVSA
VL: DIVMIQSQKFMSTSVGDRVSVTCKASQNVDTNVAWYQQKPGQSPKALIYSASYRYSGVPDRFTGSGSGTDFTLTISNVQSEDLAEYFCQQYNSFPLTFGSGTKLEIK
B2: anti-Siglec-5 monoclonal antibody 5H2 (antibody, IgG1, V domains shown)
VH: B1 VH with I2V, T59S, H82L, F94Y, F98L, G101D, Y103D, V105I
VL: B1 VL with I5T, D30G, Q37R, S56N, F94Y, L96Y, S100G
B3: anti-Siglec-5 monoclonal antibody 8A1 (antibody, IgG1, V domains shown)
VH: EIQLQQSGPELVKPGASVKVSCKASDYAFTSYNIYWVKQSHGKSLEWIGYIDPYNGGTSYNQTFKGKATLTVDKSSSTAYMHLNSLTSEDSAVYYCAMKVGYEAMDYWGQGTSVTVSS
VL: B1 VL with I5T, D30G, N32Y, T74N, Y91F, F94Y, L96Y, S100G
B4: anti-Siglec-5 monoclonal antibody 11H3 (antibody, IgG1, V domains shown)
VH: B3 VH with E1Q, I2V
VL: B1 VL with V3Q, I5T, D30G, T74N, Y91F, F94Y, L96Y, S100G
B5: anti-Siglec-5 monoclonal antibody 10F9 (antibody, IgG1, V domains shown)
VH: EIQLQQSGPELVKPGASVKVSCKASGYSFTGYNMYWVKQSHGKSFEWIGYIDPYTGGTSYNQRFKGKATLTVDKSSSTAFMHLNSLTSEDSAIYYCALFYDYDGFPYWGQGTLVTVSA
VL: B1 VL with I5T, F94Y, L96Y, S100G
B6: anti-Siglec-5 monoclonal antibody 10B6 (antibody, IgG1, V domains shown)
VH: B1 VH with W47C, I48F, T58P, T59Y, F94Y
VL: B1 VL with I5T, Q27H, D30G, N32S, A46S, F94Y
B7: anti-Siglec-5 monoclonal antibody 2G5 (antibody, IgG1, V domains shown)
VH: EIQLQQSGPELVKPGASVKVSCKASGYSFTDYNMYWVKQSHGKSLEWIGYIDPYNGNTTYNQRFKGKATLTVDKSSSTAFMHLNSLTSEDAAVYYCATFYGFDGFAYWGQGSLVAVSA
VL: QAVVTQESALTTSPGETVTLTCRSSTGAVTTSNYANWVQEKPDHLFTGLIGTTNNRAPGVPARFSGSLIGDKAALTITGAQTEDEAIYFCALWYSNHLVFGGGTKLTVLG
B8: anti-Siglec-5 monoclonal antibody 9A5 (antibody, IgG1, V domains shown)
VH: QVQLQQSGPELVEPGASVKVSCKASGYAFTSYNMYWVKQSHGKSLEWIGYIDPYNGGTYYDQKFKGRATLTVDKSSSTAHMHLNSLTSEDSAVYYCVFFYEYDGFPYWGQGTLVTVSA
VL: DIVLTQSPTLMSASPGEKVTMTCSASSSVSYMYWYQQKPRSSPKPLIYLTSNLASGVPARFSGSGSGTSYSLTISSMEAEDAATYYCQQWSSNPLTFGAGTKLELK
B9: anti-Siglec-5 monoclonal antibody 9B1 (antibody, IgG1, V domains shown)
VH: QVQLQQSGAELVKPGASVKLSCKASGYTFTEYTIHWVKQRSGQGLEWIGWFYPGSGSIKYNEKFKDKATLTADKSSSTVYMELSRLTSEDSAVYFCARQEEGGIGFDYWGQGTTLTVSS
VL: DVLMTQTPLSLLVSLGDQASISCRSSQSIVHSNGNTYLEWYLQKPGQSPKLLIYKVSIRFSGVPDRFSGSGSGTDFTLKISRVEAEDLGVYYCFQGSHVPWTFGGGTKLEIK
B10: anti-Siglec-5 monoclonal antibody 11C6 (antibody, IgG1, V domains shown)
VH: B9 VH with D73V, L83F, E100D, E101Y, G102D, I104L, D107A, T114L, L115V, S119A
VL: B9 VL with L12P, S28T, I58N
notes: also called 1106
B11: anti-Siglec-5 monoclonal antibody 8C3 (antibody, IgG1, V domains shown)
VH: QVQLQQSGGGLVKPGTSVKLSCKASGYIFTEYIIHWVKQRSGQGLEWIGWFYPGIISIKYNEKFKDKATLTADKSSSTVYMELSRLTSEDSAVYFCAGHEGYDGAMDYWGQGTSVTVSS
VL: B9 VL with L12P, S25C, K55R, I58N

Target: T1, Histidine-tagged human Siglec-5 …
Assay: SPR (BiaCore T200, 25 C), mAb captured on anti-mouse IgG, 15 nM His-tagged Siglec-5, single-concentration 1:1 fit
Protocol: The binding affinity of each anti-Siglec-5 antibody was determined by measuring their KD by surface plasmon resonance (SPR) assays. SPR data was collected at a rate of 10 Hz at 25° C. on a BiaCore T200 instrument. Data analysis was performed using BiaCore T200 Evaluation
Histidine-tagged human Siglec-5 (NovoProtein) was then flowed over the captured anti-Siglec-5 surface (120 s contact time, 30 4/min flow rate, 300 s dissociation time). […] Duplicate single-concentration trials were performed and bracketed by a blank (0 nM antigen) sample. The chip surface was regenerated in between cycles using 10 mM glycine-HCl, pH 1.7 (60 s contact time, 30 4/min flow rate, 60 s stabilization time). The resulting SPR signal was obtained as the difference in response from measurements performed on a blank flow cell.
Affinity constants (KD) were calculated from the ratio kd/kₐ.

Molecule | Kd [nM]
B1 | 0.112
B2 | 0.184
B3 | 0.229
B4 | 0.569
B5 | 0.104
B6 | 0.101
B7 | 0.081
B8 | 0.408
B9 | 0.069
B10 | 0.166
B11 | 0.043

Target: T2, human Siglec-5 expressed on human …
Assay: flow cytometry, human primary macrophages, 10 ug/ml mAb
Protocol: (§1) Initial characterization of Siglec-5 antibodies involved determining their ability to bind Siglec-5 expressed on human primary monocytes, human primary macrophages, human primary dendritic cells, and human primary neutrophils. Cells were harvested, plated at 10⁶1m1 in a 96 well plate, and incubated in 100 μl PBS containing 2% FBS, 2 mM EDTA and 10 μg/ml Mab and Fc blocking reagent for 1 hour in ice. […] Cells were washed twice in cold PBS and analyze by flow cytometry on a BD FACS Canto. Data analysis and calculation of MFI values was performed with FlowJo (TreeStar) software version 10.0.7.
(§2) Binding is compared to an isotype control.

Molecule | % Positive [%] | MFI
B1 | 84.1 | 445
B2 | 93.5 | 537
B3 | 83 | 457
B4 | 84.1 | 444
B5 | 96.2 | 562
B6 | 94.4 | 581
B7 | 91.8 | 569
B8 | 87.8 | 471
B9 | 94 | 560
B10 | 80.6 | 451
B11 | 92 | 490

Target: T2, human Siglec-5 expressed on human …
Assay: flow cytometry, human primary neutrophils, 10 ug/ml mAb
Protocol: as §1, §2

Molecule | % Positive [%] | MFI
B1 | 94.6 | 261
B2 | 98.1 | 329
B3 | 89 | 219
B4 | 97.8 | 367
B5 | 98.9 | 371
B6 | 94.4 | 253
B7 | 87.4 | 207
B8 | 98.6 | 332
B9 | 99.2 | 411
B10 | 99.7 | 500
B11 | 96 | 320

Target: T2, human Siglec-5 expressed on human …
Assay: flow cytometry, human primary monocytes, 10 ug/ml mAb
Protocol: as §1, §2

Molecule | % Positive [%] | MFI
B1 | 93.5 | 391
B2 | 96.1 | 404
B3 | 98 | 398
B4 | 95.5 | 376
B5 | 95.3 | 405
B6 | 98.2 | 421
B7 | 97.3 | 368
B8 | 93.2 | 368
B9 | 97.6 | 382
B10 | 95.7 | 386
B11 | 94.8 | 377

Target: T3, Human Siglec 5, Fc chimera (R&D Systems)
Assay: RBC adhesion to plate-bound Siglec-5-Fc, 1.0 ug/ml mAb, percent of binding without antibody
Protocol: (§3) Siglec-5 antibodies (0.3 μg/ml or 1.0 μg/ml) were bound for one hour at RT with gentle rocking. After removal of unbound antibody, red blood cells were added to each well at a concentration of 3.0 ×10⁶ cells per ml and incubated at RT for one hour. Unbound RBCs were then carefully washed off 3X with PBS, and water was added to each well for hypotonic lysis of bound RBCs. The plate was transferred to -80° C. for 10 minutes, followed by 37° C. for 15 minutes. Bound RBCs were detected by peroxidase activity, followed by 2N sulfuric acid to stop the reaction.

Molecule | Percent RBC Binding to Siglec-5 [%]
B1 | 6.86
B2 | 9.94
B3 | 8
B4 | 6.17
B5 | 6.22
B6 | 5.21
B7 | 6.73
B8 | 5.59
B9 | 5.79
B10 | 4.76
B11 | 5.36

Target: T2, human Siglec-5 expressed on human …
Assay: flow cytometry, human primary dendritic cells, 10 ug/ml mAb
Protocol: as §1, §2

Molecule | % Positive [%] | MFI
B1 | 90.3 | 467
B2 | 94 | 515
B3 | 85.7 | 349
B4 | 86 | 377
B5 | 95.6 | 589
B6 | 93.6 | 607
B7 | 90.7 | 459
B8 | 93.9 | 591
B9 | 96.1 | 660
B10 | 86.9 | 402
B11 | 94.9 | 512

Target: T3, Human Siglec 5, Fc chimera (R&D Systems)
Assay: RBC adhesion to plate-bound Siglec-5-Fc, 1.0 ug/ml isotype control, percent of binding without antibody

Molecule | Percent RBC Binding to Siglec-5 [%]
mouse IgG2a isotype control antibody | 94.5
mouse IgG2b isotype control antibody | 94.4

Target: T3, Human Siglec 5, Fc chimera (R&D Systems)
Assay: RBC adhesion to plate-bound Siglec-5-Fc, 0.3 ug/ml mAb, percent of binding without antibody
Protocol: as §3

Molecule | Percent RBC Binding to Siglec-5 [%]
B1 | 47.4
B2 | 36.5
B3 | 19
B4 | 38.5
B5 | 48.7
B6 | 27.5
B7 | 31.8
B8 | 47.5
B9 | 29.2
B10 | 25.4
B11 | 24.2
